Data from article PMC5785730, “Assays of D-Amino Acid Oxidase Activity” (Frontiers in Molecular Biosciences, 2018).

Assays:
Settings in all cases: FAD
purified protein [1] = substrate: C[C@@H](N)C(=O)O; test: purified protein
purified protein [2] = substrate: N[C@H](CCC(=O)O)C(=O)O; test: purified protein
[3] = substrate: NCCCC[C@@H](N)C(=O)O; test: steady-state kinetics, oxygen consumption assay (Km); format: biochemical, Rhodotorula toruloides

B1: RgDAAO (D-amino acid oxidase from Rhodotorula gracilis) (Rhodotorula toruloides) (protein)
chain: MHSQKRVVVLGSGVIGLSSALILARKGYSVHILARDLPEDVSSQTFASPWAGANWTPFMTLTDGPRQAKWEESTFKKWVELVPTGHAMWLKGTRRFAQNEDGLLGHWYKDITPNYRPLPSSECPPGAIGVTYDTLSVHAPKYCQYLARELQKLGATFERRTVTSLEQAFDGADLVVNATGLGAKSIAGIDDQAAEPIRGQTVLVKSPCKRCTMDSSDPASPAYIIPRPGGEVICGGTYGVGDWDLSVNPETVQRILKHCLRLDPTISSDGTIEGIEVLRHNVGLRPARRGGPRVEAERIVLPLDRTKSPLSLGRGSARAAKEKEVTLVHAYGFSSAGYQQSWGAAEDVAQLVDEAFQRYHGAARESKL
notes: recombinant wild-type RgDAAO
Km (purified protein [1]): 1.3 ± 0.2 mM
Vmax (purified protein [1]): 100 µmol/min/mg
Km (purified protein [2]): 76.4 ± 6.4 mM
Vmax (purified protein [2]): 1.7 µmol/min/mg
Km [3]: 14.6 ± 1.4 mM
Vmax [3]: 16.4 µmol/min/mg
